# Laboratory results as given in IntAct's records for PubMed 24937458.
# B1: Lysine-specific demethylase 5B (Homo sapiens), Q9UGL1 (parent)
# chain: MEAATTLHPGPRPALPLGGPGPLGEFLPPPECPVFEPSWEEFADPFAFIHKIRPIAEQTGICKVRPPPDWQPPFACDVDKLHFTPRIQRLNELEAQTRVKLNFLDQIAKYWELQGSTLKIPHVERKILDLFQLNKLVAEEGGFAVVCKDRKWTKIATKMGFAPGKAVGSHIRGHYERILNPYNLFLSGDSLRCLQKPNLTTDTKDKEYKPHDIPQRQSVQPSETCPPARRAKRMRAEAMNIKIEPEETTEARTHNLRRRMGCPTPKCENEKEMKSSIKQEPIERKDYIVENEKEKPKSRSKKATNAVDLYVCLLCGSGNDEDRLLLCDGCDDSYHTFCLIPPLHDVPKGDWRCPKCLAQECSKPQEAFGFEQAARDYTLRTFGEMADAFKSDYFNMPVHMVPTELVEKEFWRLVSTIEEDVTVEYGADIASKEFGSGFPVRDGKIKLSPEEEEYLDSGWNLNNMPVMEQSVLAHITADICGMKLPWLYVGMCFSSFCWHIEDHWSYSINYLHWGEPKTWYGVPGYAAEQLENVMKKLAPELFVSQPDLLHQLVTIMNPNTLMTHEVPVYRTNQCAGEFVITFPRAYHSGFNQGFNFAEAVNFCTVDWLPLGRQCVEHYRLLHRYCVFSHDEMICKMASKADVLDVVVASTVQKDMAIMIEDEKALRETVRKLGVIDSERMDFELLPDDERQCVKCKTTCFMSAISCSCKPGLLVCLHHVKELCSCPPYKYKLRYRYTLDDLYPMMNALKLRAESYNEWALNVNEALEAKINKKKSLVSFKALIEESEMKKFPDNDLLRHLRLVTQDAEKCASVAQQLLNGKRQTRYRSGGGKSQNQLTVNELRQFVTQLYALPCVLSQTPLLKDLLNRVEDFQQHSQKLLSEETPSAAELQDLLDVSFEFDVELPQLAEMRIRLEQARWLEEVQQACLDPSSLTLDDMRRLIDLGVGLAPYSAVEKAMARLQELLTVSEHWDDKAKSLLKARPRHSLNSLATAVKEIEEIPAYLPNGAALKDSVQRARDWLQDVEGLQAGGRVPVLDTLIELVTRGRSIPVHLNSLPRLETLVAEVQAWKECAVNTFLTENSPYSLLEVLCPRCDIGLLGLKRKQRKLKEPLPNGKKKSTKLESLSDLERALTESKETASAMATLGEARLREMEALQSLRLANEGKLLSPLQDVDIKICLCQKAPAAPMIQCELCRDAFHTSCVAVPSISQGLRIWLCPHCRRSEKPPLEKILPLLASLQRIRVRLPEGDALRYMIERTVNWQHRAQQLLSSGNLKFVQDRVGSGLLYSRWQASAGQVSDTNKVSQPPGTTSFSLPDDWDNRTSYLHSPFSTGRSCIPLHGVSPEVNELLMEAQLLQVSLPEIQELYQTLLAKPSPAQQTDRSSPVRPSSEKNDCCRGKRDGINSLERKLKRRLEREGLSSERWERVKKMRTPKKKKIKLSHPKDMNNFKLERERSYELVRSAETHSLPSDTSYSEQEDSEDEDAICPAVSCLQPEGDEVDWVQCDGSCNQWFHQVCVGVSPEMAEKEDYICVRCTVKDAPSRK
# partner: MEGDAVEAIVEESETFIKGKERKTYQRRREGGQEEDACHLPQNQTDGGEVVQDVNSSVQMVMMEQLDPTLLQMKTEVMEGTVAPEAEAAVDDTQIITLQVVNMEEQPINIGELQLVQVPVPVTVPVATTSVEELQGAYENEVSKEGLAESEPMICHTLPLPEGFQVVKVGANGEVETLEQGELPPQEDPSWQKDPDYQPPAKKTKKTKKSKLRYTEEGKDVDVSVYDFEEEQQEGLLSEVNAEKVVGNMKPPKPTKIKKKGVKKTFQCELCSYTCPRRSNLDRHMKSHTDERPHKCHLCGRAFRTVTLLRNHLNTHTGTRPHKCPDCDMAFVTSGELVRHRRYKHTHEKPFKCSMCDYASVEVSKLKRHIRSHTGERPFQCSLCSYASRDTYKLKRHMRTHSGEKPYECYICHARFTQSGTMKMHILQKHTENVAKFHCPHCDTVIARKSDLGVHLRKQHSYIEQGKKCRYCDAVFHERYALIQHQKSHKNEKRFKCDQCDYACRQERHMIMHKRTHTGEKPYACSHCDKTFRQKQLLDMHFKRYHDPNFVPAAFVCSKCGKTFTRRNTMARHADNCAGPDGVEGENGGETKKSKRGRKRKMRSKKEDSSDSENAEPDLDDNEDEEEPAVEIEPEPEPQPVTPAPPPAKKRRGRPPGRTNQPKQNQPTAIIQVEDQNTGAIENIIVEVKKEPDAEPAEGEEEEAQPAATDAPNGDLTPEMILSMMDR
# Variants of: B1
# Conditions: with ctcf_human CTCF
row,effect of a mutation on the interaction,Variant
1,decreasing interaction strength,K1435R
